Holding throughout (assay): EMSA
Conditions in all cases: EMSA: 5 nM pUC19, 30 min at room temperature, pH 7.0, 50 mM MOPS/50 mM NaCl (low) or 200 mM MOPS/200 mM NaCl (high); 1% agarose in TAE

Data set [1] concerns EncA encapsulin shell (Myxococcus xanthus).
Data set [2] has as its system EncA encapsulin shell;EncC cargo protein (Myxococcus xanthus;Myxococcus xanthus).
The subject of data set [3] is EncA encapsulin shell (Myxococcus xanthus). The source holds these as a separate data set.
Data set [4] has as its system EncA encapsulin shell;EncC cargo protein (Myxococcus xanthus;Myxococcus xanthus). This is another data set of the same source.

pKd: −log10 of the molar value.

For orientation: pKd means the negative decadic logarithm of the Kd, by convention in mol/L.

Consider pUC19 supercoiled plasmid, for which the pKd in data set [1] was 6.52; in data set [2], 6.40; in data set [3], 6.52; in data set [4], 6.52.
